# In patent publication US20220306744A1 (CRESCENDO BIOLOGICS, published 2022):
# T1: mouse PD-1 protein (R&D Systems cat no. 1021-PD) (mouse, UniProt Q02242 25-167)
# T1 construct: Bought protein
# T1 sequence (looked up): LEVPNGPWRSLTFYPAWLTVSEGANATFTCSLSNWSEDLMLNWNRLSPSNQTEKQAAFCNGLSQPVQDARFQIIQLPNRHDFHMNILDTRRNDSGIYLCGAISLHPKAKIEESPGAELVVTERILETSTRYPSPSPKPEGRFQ
# Experiments:
# [1] = molecular target: T2, human PD-1 expressed on cells (CHO TREX human PD1 cell line, full-length human PD-1 sequence) (human, UniProt Q15116 21-288); assay: cell-based or functional assay
# [2] = molecular target: T1, mouse PD-1 protein (R&D Systems cat no. …); assay: HTRF binding assay, 2 nM mouse PD1
# Experimental: (§1) Purified VH were tested for their ability to bind to human PD1 (R&D Systems cat no. 1086-PD), cynomolgus PD-1 (Acro Biosystems cat no. PD-1-C5254) and mouse PD1 (R&D Systems cat no. 1021-PD) in an HTRF Binding assay format. All reagents and serially diluted VH were prepared in assay buffer containing PBS, 0.1% BSA and 0.4M Potassium Fluoride. Samples or assay buffer (non-specific binding) were incubated with 2 nM human/cynomolgus or mouse PD1, 1 nM Anti human-Fc Cryptate PAb (Cisbio cat. no. 61HFCKLB) and 30 nM anti His-D2 (CisBio cat no 61HISDLA) in black 384-shallow well assay plates for a minimum of 3 hours at room temperature. Time-resolved fluorescent emission at 620 nm and 665 nm was measured following excitation at 337 nm on the BMG PHERAstar plate reader. The HTRF ratio were calculated ((665 nm emission/620 nm emission)*10000) and the data corrected for (non-specific binding) to give the specific binding signal.
# [3] = molecular target: T2, human PD-1 expressed on cells (CHO TREX …); assay: FMAT binding to CHO human PD-1 cells
# [4] = molecular target: T3, recombinant human PD-1 Fc chimera (human, UniProt Q15116 25-167); assay: HTRF binding assay, 2 nM recombinant PD1, anti His-D2 and anti human-Fc cryptate
# T3 construct: Bought protein (R&D 1086-PD in the HTRF assay); also called human PD-1-hu Fc; huPD-1Fc; not shown: human Fc
# Experimental: as §1
# [5] = molecular target: T4, cynomolgus PD-1 recombinant protein (Acro Biosystems cat no. PD-1-C5254) (cynomolgus); assay: as above
# T4 construct: Bought protein; also called cyno PD1
# Experimental: as §1
# [6] = molecular target: T2, human PD-1 expressed on cells (CHO TREX …); assay: FMAT: inhibition of human Fc tagged human PD-L1 (400 pM) binding to CHO human PD-1 cells
# Experimental: Purified VH were serially diluted in FMAT assay buffer and tested for binding to CHO human PD-1 cells as described above and for inhibition of human PD-L1/PD-L2 binding to CHO human PD-1 cells. All reagents and serially diluted VH were prepared in FMAT assay buffer. VH, buffer (total binding controls) or excess competitor (non-specific binding control) were incubated with 400 pM human Fc tagged human PD-L1 or 100 pM PDL-2, 4 nM anti human Fc-Alexa Fluor-488 and 2000 per well CHO human PD-1 DRAQ5 stained cells in a 384 well black clear-bottomed assay plates. Plates were incubated for 2 hours at room temperature then fluorescence measured in the FL2 (502 nm-537 nm) and FL5 (677-800 nm) channels on the Mirrorball plate reader (TTP) following excitation at 488 nm and 640 nm. Data was expressed as a % of the total binding control (i.e. % control) after subtraction of the background signal determined from the non-specific binding control wells. The results are shown in FIG. 5 and in Tables 8 and 9 below.
# [7] = molecular target: T3, recombinant human PD-1 Fc chimera; assay: SPR Biacore T200, single cycle kinetics, human PD-1-hu Fc amine coupled to CM5, 1:1 model
# Experimental: Binding kinetics of certain humabodies binding to human PD-1-hu Fc were measured by surface plasmon resonance (SPR) technology using Biacore T200 instrument (GE Healthcare). Recombinant human PD-1-hu Fc was immobilized by standard amine coupling to CM5 sensors chip (GE Healthcare) using 0.1 mg/ml solution of antigen in 10 mM sodium acetate at pH 5.5. For the reference flow cell, a blank immobilisation was carried out. Single cycle kinetics assays were used to study the interaction, a five point, three-fold dilution series of each Humabody® VH was made with a top concentration of 30 nM. The binding kinetics were followed by flowing the Humabody® VH over the chip surface in HBS EP+ buffer at a flow rate of 30 μl/min. The contact time for each of the association steps was 180 seconds and the dissociation step was varied between 1200-3600 seconds. The data was fitted to a 1:1 binding model after double reference subtraction using the Biacore T200 Evaluation software.
# [8] = molecular target: T2, human PD-1 expressed on cells (CHO TREX …); assay: epitope competition assay on CHO human PD1 cells (labelled VH not specified) after 1 day in mouse serum
# Experimental: (§2) Serum stability of VH and multivalent VH constructs was assessed by measurement of their activity following incubation for 0, 1, 4 or 7 days both in mouse (Sigma M5905) and human serum. […] Minimal loss of activity was observed following incubation with serum.
# [9] = molecular target: T2, human PD-1 expressed on cells (CHO TREX …); assay: epitope competition assay on CHO human PD1 cells (labelled VH not specified) after 4 days in human serum
# Experimental: as §2
# [10] = molecular target: T2, human PD-1 expressed on cells (CHO TREX …); assay: epitope competition assay on CHO human PD1 cells (labelled VH not specified) after 7 days in mouse serum
# Experimental: as §2
# T3 sequence (Q15116 25-167 limits assumed, change not shown): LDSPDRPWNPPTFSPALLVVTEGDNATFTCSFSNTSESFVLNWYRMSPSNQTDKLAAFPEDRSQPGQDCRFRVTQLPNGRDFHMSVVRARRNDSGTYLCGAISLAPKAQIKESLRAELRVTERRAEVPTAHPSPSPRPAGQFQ
# T2 sequence (Q15116 21-288): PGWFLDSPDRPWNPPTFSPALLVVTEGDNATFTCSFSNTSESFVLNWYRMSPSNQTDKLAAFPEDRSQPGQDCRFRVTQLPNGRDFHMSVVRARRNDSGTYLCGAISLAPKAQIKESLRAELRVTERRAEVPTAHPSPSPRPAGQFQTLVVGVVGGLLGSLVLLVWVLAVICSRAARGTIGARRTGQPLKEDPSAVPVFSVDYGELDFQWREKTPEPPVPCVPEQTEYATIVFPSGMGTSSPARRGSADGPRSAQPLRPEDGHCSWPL
"EC50 (M), NFAT-Luciferase reporter gene assay [1] [M]",binding result [2],EC50 [3] [nM],EC50 [4] [nM],EC50 [5] [nM],IC50 [6] [nM],Kd [7] [nM],koff [7] [s⁻¹],kon [7] [M⁻¹ s⁻¹],IC50 [8] [nM],IC50 [9] [nM],IC50 [10] [nM],Binder
1.2e-09,no binding,0.2,2.1,3.9,1.2,0.0097,4.3e-06,440000,2,1.1,2,"1.92b-4GS-1.62a (other, Biparatopic VH-linker-VH; also called 1.92-4GS-1.62a; 1.92b-4gs-2.12a) EVQLVESGGGLVKPGGSLRLSCAASGFTFSDESMTWMRQAPGKGLEWVSYISSGGGVKFYADSVKGRFTISRDNAKNSLYLQMNSLRAEDTAVYYCAREAPLRLGESPHDAFDISGQGTMVTVSSGGGGSGGGGSGGGGSGGGGSEVQLVESGGGVVRPGGSLRLSCAASGFTFDDYAMSWVRQAPGKGLEWVSGITWNAGSTGYADSVKGRFTISRDNAKNSLYLQMNSLRAEDTALYYCVRDKYSYAWSYDDFDIWGQGTMVTVSS"
2e-09,no binding,0.2,2.1,3.7,1.45,0.012,6.5e-06,510000,1.3,1.1,1.8,"1.92b-4GS-1.39a (other, Biparatopic VH-linker-VH; built from its parts here because it is not clear whether 1112 is the protein or the nucleic acid) EVQLVESGGGLVKPGGSLRLSCAASGFTFSDESMTWMRQAPGKGLEWVSYISSGGGVKFYADSVKGRFTISRDNAKNSLYLQMNSLRAEDTAVYYCAREAPLRLGESPHDAFDISGQGTMVTVSSGGGGSGGGGSGGGGSGGGGSEVQLVESGGGLVQPGRSLRLSCAASGFTFDDYALHWVRQAPGKDLEWVSGISWNGGSYGYADSVKGRFTISRDNAKNSLYLQMNSLRAEDTALYYCVREKGPGLTGSTADYYGLDAWGQGTMVTVSS"
